Assay results reported in PMC12500691.
pIC50, pKd: −log10 of the molar value. “And” between values parts separate entries of the source, which are not always exact repeats. Equal values may be shown once.

Legend:
[1] = target: SARS-CoV-2 SpikeHis (SARS-CoV-2 (Wuhan variant)) (UniProt P0DTC2); assay: SPR
[2] = target: SARS-CoV-2 Spike_(Strep) (SARS-CoV-2 (Wuhan variant)) (UniProt P0DTC2); assay: SPR
[3] = target: SARS-CoV-2 extended S1 subunit (SARS-CoV-2 (Wuhan variant)) (UniProt P0DTC2); assay: SPR
[4] = target: SARS-CoV-2 Spike_(Strep) (SARS-CoV-2 (Wuhan variant)) (UniProt P0DTC2); assay: negative stain electron microscopy

Sequence of human angiotensin converting enzyme 2 (Q9BYF1 20-611): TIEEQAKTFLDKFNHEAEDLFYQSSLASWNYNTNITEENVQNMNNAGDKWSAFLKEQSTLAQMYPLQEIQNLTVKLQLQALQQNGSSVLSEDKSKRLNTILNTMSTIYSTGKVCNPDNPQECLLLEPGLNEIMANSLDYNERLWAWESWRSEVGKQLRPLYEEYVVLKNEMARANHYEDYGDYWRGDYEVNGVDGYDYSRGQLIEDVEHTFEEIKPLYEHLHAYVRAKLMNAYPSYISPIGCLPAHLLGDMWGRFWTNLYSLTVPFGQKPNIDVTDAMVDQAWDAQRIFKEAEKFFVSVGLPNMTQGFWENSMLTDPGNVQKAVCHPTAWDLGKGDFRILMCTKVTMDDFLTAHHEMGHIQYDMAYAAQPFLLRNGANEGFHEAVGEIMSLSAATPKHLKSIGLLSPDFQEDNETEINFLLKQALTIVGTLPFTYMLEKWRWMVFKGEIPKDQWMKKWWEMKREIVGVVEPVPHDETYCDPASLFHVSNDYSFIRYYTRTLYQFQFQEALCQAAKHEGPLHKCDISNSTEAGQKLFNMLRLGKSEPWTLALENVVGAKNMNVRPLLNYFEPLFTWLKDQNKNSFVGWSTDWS

Substance | pKd [1] | pIC50 [2] | pKd [2] | stoichiometry N [2] | pIC50 [3] | pKd [3] | stoichiometry N [4]
LL-37 (peptide) | 6.39 | 6.17 | 6.39 | 6 | 6.80 | 6.70 | 
gold-labeled LL-37 (peptide) |  |  |  |  |  |  | 4 and 7
human angiotensin converting enzyme 2 (from UniProt Q9BYF1-1 20-611) (receptor) |  |  |  |  |  | 6.21 | 
